This note sets out measurements from patent US20250084172A1 (23ANDME, published 2025).

Substitutions are numbered along the chain they refer to.

First the molecules themselves.
T1: human soluble ULBP6 haplotype 02 (hULBP6_02) (human, UniProt Q5VY80 26-218)
T1 chain: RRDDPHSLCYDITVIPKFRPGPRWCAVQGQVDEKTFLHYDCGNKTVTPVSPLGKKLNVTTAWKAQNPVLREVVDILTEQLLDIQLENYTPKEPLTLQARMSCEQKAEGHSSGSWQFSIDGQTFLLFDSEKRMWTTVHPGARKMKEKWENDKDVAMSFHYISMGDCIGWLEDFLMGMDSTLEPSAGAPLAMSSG

T2: cynomolgus soluble ULBP2/6 (cULBP2/6) (cynomolgus, UniProt Q5VY80 28-217 (human entry), limits assumed)
T2 construct: also called cyno ULBP6; Cyno-cULBP2/6
T2 chain: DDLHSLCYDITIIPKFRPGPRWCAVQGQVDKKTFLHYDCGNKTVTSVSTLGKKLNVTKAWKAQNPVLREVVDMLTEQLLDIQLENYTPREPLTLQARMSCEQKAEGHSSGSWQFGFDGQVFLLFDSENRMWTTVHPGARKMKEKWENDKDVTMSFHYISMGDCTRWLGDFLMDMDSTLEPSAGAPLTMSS

T3: cynomolgus soluble ULBP5 (cULBP5) (cynomolgus)
T3 construct: also called Cyno-cULBP5
T3 chain: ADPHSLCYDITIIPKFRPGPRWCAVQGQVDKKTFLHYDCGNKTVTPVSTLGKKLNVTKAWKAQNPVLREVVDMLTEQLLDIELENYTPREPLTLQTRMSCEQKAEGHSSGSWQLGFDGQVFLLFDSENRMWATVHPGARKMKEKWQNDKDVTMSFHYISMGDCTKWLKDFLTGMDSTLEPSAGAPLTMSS

T4: human soluble ULBP6 haplotype 01 (hULBP6_01) (human, UniProt Q5VY80 27-218, limits assumed)
T4 construct: also called sULBP6_01
T4 chain: T1 chain with R1G, L81R, T122I

T5: human soluble ULBP2 (hULBP2) (human, UniProt Q9BZM5 26-216)
T5 construct: also called sULBP2
T5 sequence: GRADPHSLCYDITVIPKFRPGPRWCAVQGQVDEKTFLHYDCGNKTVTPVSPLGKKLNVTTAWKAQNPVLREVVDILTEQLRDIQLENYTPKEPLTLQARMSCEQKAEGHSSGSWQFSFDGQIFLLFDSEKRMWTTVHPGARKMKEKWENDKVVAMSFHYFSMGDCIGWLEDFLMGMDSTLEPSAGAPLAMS

T6: cell surface ULBP6_01 on COV644 cells (human, UniProt Q5VY80 27-218)
T6 construct: whole, on cells; also called cell surface ULBP6 (COV644)
T6 chain: T1 chain with R1G, L81R, T122I

T7: cell surface ULBP6_02 on PANC02.13 cells (human, UniProt Q5VY80 26-218)
T7 construct: whole, on cells; also called cell surface ULBP6 (PANC02.13)
T7 chain: T1 chain

B1: human ULBP6 displayed on M13 phage (ULBP6-HA-pIII) (other)
chain: RRDDPHSLCYDITVIPKFRPGPRWCAVQGQVDEKTFLHYDCGNKTVTPVSPLGKKLNVTMAWKAQNPVLREVVDILTEQLLDIQLENYTPKEPLTLQARMSCEQKAEGHSSGSWQFSIDGQTFLLFDSEKRMWTTVHPGARKMKEKWENDKDVAMSFHYISMGDCIGWLEDFLMGMDSTLEPSAGAPLAMSSGYPYDVPDYA
notes: also called ULBP6 phage; not shown: M13 minor coat protein pIII
B2: humanized 7B3 (h7B3), Fc version not stated (antibody, V domains shown)
VH: EVQLVESGGGLVQPGGSLRLSCAASGFTFSTYGFHWVRQAPGKGLEWVAYISSNSGTIDYADTVKGRFTISRDNAKNSLYLQMNSLRAEDTAVYYCARQGYGFDNWGQGTTVTVSS
VL: DIQLTQSPSSLSASVGDRVTITCSASSRVSYMNWYQQKPGKSPKIWVYGISNLASGVPSRFSGSGSGTDFTFTISSLQPEDIATYYCQQRSSHPLTFGGGTKVEIK
notes: Recombinant humanized antibody, hIgG1 backbone with kappa light chain; also called hu7B3; PUR3922
B3: humanized 8E8 (h8E8), Fc version not stated (antibody, V domains shown)
VH: QVQLVQSGAEVKKPGSSVKVSCKASGYTFTTYGITWVRQAPGQGLEWIGEIYPGTATSYSNERFKGRATLTADRSTSTAYMELSSLRSEDTAVYFCARRGTYGTYEWYFDVWGRGTLVTVSS
VL: DIQMTQSPSSLSASVGDRVTITCRASENIYSHLAWYQQKPGKSPKLLVYAATNLADGVPSRFSGSGSGTDYTLTISSLQPEDFATYYCQHFWGTPWTFGGGTKVEIK
notes: also called hu8E8; PUR3924

Test [1] deals with anti-HA antibody. Put plainly: phage ELISA: plate coated with anti-HA antibody, phage titrated in 3-fold steps from 1.0 O.D./mL, HRP anti-M13 detection, O.D. 450.
The target of test [2] is hNKG2D-Fc (human NKG2D 78-216 with C-terminal long huFc-Flag tag) (human). Put plainly: phage ELISA: plate coated with the ULBP6 receptor NKG2D (PUR4928, construct not stated), phage titrated in 3-fold steps from 1.0 O.D./mL, HRP anti-M13 detection, O.D. 450.
Test [3] concerns the target T1, human soluble ULBP6 haplotype 02 …. In words: cell-based or functional assay.
The target is the same in test [4]. Put plainly: cell-based or functional assay.
Test [5] has the same target. Put plainly: SPR (BIACORE 8K, 37 C); antibody captured on Protein A, soluble ULBP injected.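 Note: ligand injected as threefold dilution series in HBS-P (highest 10 or 50 nM), reference-cell and buffer-subtracted sensorgrams fitted with a 1:1 Langmuir model for on and off rates.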
Test [6] deals with T2, cynomolgus soluble ULBP2/6 (cULBP2/6). Described as above.
Test [7] deals with T3, cynomolgus soluble ULBP5 (cULBP5). The description is as above.
Test [8] addresses T4, human soluble ULBP6 haplotype 01 …. The description is as above.
The target of test [9] is T5, human soluble ULBP2 (hULBP2). The description is as above.
Test [10] concerns the target T6, cell surface ULBP6_01 on COV644 cells. Put plainly: flow cytometry on COV644 cells, anti-hFc-APC detection, average of 2 replicates.
For test [11], the target named is T7, cell surface ULBP6_02 on PANC02.13 cells. In words: flow cytometry on PANC02.13 cells, anti-hFc-APC detection, average of 2 replicates.
Test [12] addresses T6, cell surface ULBP6_01 on COV644 cells. In words: flow cytometry; blocking of hNKG2D-mFc binding to COV644 cells, average of 2 replicates.
Test [13] concerns the target B1. Put plainly: phage ELISA: plate coated with the antibody, ULBP6 phage titrated in 3-fold steps from 1.0 O.D./mL, HRP anti-M13 detection, O.D. 450.
The target of test [14] is T1, human soluble ULBP6 haplotype 02 …. In words: Biacore binding to ULBP6_02 (SPR).

Chain of hNKG2D-Fc (human NKG2D 78-216 with C-terminal long huFc-Flag tag) (human) (chain, as listed by the source limits assumed): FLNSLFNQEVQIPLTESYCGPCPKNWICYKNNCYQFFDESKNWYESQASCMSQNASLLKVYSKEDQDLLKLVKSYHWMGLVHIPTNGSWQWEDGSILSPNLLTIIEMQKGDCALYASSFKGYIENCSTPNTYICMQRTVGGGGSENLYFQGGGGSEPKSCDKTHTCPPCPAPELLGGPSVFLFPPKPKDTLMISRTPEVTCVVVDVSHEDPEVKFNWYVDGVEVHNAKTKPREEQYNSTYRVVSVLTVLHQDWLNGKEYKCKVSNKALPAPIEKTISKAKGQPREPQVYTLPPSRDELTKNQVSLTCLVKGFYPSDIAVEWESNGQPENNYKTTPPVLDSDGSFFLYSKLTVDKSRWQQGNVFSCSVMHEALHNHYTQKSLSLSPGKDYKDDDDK

In the case of B1, the “EC50 (read off the curve)” value in [1] and in test [2] was ~0.01 O.D. (phage) each time.

B2: the “EC50 (read off the curve); NKG2D MFI on primed PBMCs with 50 nM sULBP6_02” value in [3] is around 20 nM. Besides, the “EC50 (read off the curve); IFNg secretion of primed PBMCs on plate-bound MICA with 50 nM sULBP6_02” value in test [4] is around 1 nM. Besides, the Kd is 0.255 nM in [5]; 0.377 nM in test [6]; 6.13 nM in test [7]; 0.263 nM in test [8]; 0.673 nM in [9]. The off-rate constant (koff) in test [5] was determined as 0.000379 s⁻¹; in test [6], 0.000542 s⁻¹; in test [7], 0.0034 s⁻¹; in test [8], 0.000382 s⁻¹; in test [9], 0.000507 s⁻¹. The on-rate (kon) in [5] was 1.48e+06 M⁻¹ s⁻¹; in [6] it was 1.44e+06 M⁻¹ s⁻¹; in test [7] it was 554000 M⁻¹ s⁻¹; in test [8], 1.45e+06 M⁻¹ s⁻¹; in test [9], 753000 M⁻¹ s⁻¹. Also, the figures for the 50% effective concentration (EC50) in test [10] and in test [11] were 1.93 nM and 1.97 nM, respectively. The molecule also registered a half-maximal inhibitory concentration (IC50) in [12] of 0.17 nM. Besides, the “EC50 (read off the curve)” value in [13] was ~0.006 O.D. (phage).

With B3, in test [3], the “IC50 (read off the curve); fall of NKG2D MFI on primed PBMCs with 50 nM sULBP6_02” value was around 3 nM. The molecule also came in with a Kd in [14] of 1.56 nM.
